Our source for the percent of erythroid cells positive for binding to MV4-11 values is patent publication US20190160102A1.

The test concerns the target CD33 on MV-4-11 human AML cells (human) (UniProt P20138). Put plainly: flow cytometry, cell-cell binding: HA-positive erythroid cells within the CFSE-positive MV4-11 population (negative control).
Chain of UniProt P20138 (P20138 18-364 limits assumed): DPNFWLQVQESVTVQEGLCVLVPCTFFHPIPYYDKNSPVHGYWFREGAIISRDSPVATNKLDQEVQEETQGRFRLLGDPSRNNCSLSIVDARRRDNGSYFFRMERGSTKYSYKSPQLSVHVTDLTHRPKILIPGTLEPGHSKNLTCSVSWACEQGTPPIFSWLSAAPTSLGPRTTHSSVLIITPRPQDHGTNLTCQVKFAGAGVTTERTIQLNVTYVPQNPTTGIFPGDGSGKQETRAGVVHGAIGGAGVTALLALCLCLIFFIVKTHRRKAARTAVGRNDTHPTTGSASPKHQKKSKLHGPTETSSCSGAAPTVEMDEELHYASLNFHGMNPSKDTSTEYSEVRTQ

“HA-GPA (HA tag-Glycophorin A) expressed on erythroid cells, negative control” showed a percent of erythroid cells positive for binding to MV4-11 of 10.7%.
